Laboratory results reported in US20210332339A1.

Columns and labels:
[1] = molecular target: RRR-type mutant ZFA36-ND1 (ZFA36 zinc finger array, TGAAARA linker, ND1 D489R/N543R) (Bacillus SGD-V-76); test: cell-based or functional assay
[2] = molecular target: RRR-type mutant ZFA36-FokI-ND (ZFA36 zinc finger array, TGAAARA linker, FokI nuclease domain D483R/H537R) (UniProt P14870); test: cell-based or functional assay
Chain of RRR-type mutant ZFA36-FokI-ND (ZFA36 zinc finger array, TGAAARA linker, FokI nuclease domain D483R/H537R) (P14870 other isoform, or with tags, fused parts or gaps D483R H537R D483R H537R): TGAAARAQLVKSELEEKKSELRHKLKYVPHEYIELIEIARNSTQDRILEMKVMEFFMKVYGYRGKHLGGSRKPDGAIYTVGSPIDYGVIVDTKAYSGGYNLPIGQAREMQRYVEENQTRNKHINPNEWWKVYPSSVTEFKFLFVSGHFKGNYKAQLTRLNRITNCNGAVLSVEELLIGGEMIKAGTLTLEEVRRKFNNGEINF

cleavage activity of the reporter, SSA reporter assay, relative to the FokI-ND homodimer type [1] [%] | cleavage activity of the target sequence (ZFL1-ZFA36) on the reporter, SSA reporter assay, relative to ZFA36-FokI [2] [%] | cleavage activity of the target sequence (ZFL1-ZFA36) on the reporter, SSA reporter assay, relative to ZFA36-FokI [1] [times] | cleavage activity of the reporter, SSA reporter assay [2] [%] | Substance
60 | 60 | – | – | DDD-type mutant ZFL1-FokI-ND (hPGRN_ZFL1 zinc finger array, TGAAARA linker, FokI nuclease domain R487D/N496D) (from UniProt P14870 384-579) (enzyme)
– | – | 1.6 | 80 | DDD-type mutant ZFL1-ND1 (hPGRN_ZFL1 zinc finger array, TGAAARA linker, ND1 R493D/N502D) (enzyme)
